Experimental data as given in patent publication US20060088522A1, “Humanized anti-5T4 antibodies and anti-5T4/calicheamicin conjugates” (Wyeth, priority 2004, published 2006).

How the values were obtained:
PC14PE6 lung tumors = assay: orthotopic model of human lung cancer; format: in vivo, nude mice; settings: intraperitoneal, 3 doses on days 6, 10 and 14
Procedure: To further assess the targeting ability of antibodies having an H8-calicheamicin conjugates, an orthotopic model for non-small cell and small cell cancer was used, essentially as described by Onn et al. (2003) Clin. Cancer Res. 9(15):5532-5539. In brief, human lung adenocarcinoma (PC14PE6) cells were injected into tail veins of nude mice, which then migrated to form tumors in lung. Tumors appeared as solid nodules in the lung parenchyma and caused hemorrhagic pleural effusions containing suspended tumor cells. Injection of control compounds and H8-calicheacmicin conjugates were administered by intraperitoneal injection to tumor-bearing mice beginning at 6 days after injection of tumor cells for a total of 3 doses given at 4-day intervals, i.e., on days 6, 10, and 14.

[1] = target: T1, human 5T4 antigen on cells (human, UniProt Q13641 32-420); assay: cell-based or functional assay
T1 construct: whole, on cells; also called 5T4 on MDAMB435/5T4 cells; 5T4 on CT26/5T4 cells
T1 sequence (looked up): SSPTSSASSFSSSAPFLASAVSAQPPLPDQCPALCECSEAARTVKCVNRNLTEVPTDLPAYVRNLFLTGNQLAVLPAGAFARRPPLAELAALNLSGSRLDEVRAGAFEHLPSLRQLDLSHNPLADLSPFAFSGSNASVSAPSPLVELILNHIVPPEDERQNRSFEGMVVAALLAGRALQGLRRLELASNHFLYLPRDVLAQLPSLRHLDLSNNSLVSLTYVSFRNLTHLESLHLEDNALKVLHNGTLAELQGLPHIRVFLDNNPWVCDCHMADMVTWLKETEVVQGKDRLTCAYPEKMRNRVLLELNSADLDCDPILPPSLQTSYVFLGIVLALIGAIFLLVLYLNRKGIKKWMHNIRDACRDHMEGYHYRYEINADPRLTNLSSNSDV

[2] = target: T1, human 5T4 antigen on cells; assay: FACS on MDAMB435/5T4 cells
human 5T4 antigen [3] = target: T2, human 5T4 antigen (human, UniProt Q13641 32-355, limits assumed); assay: BIACORE
T2 construct: Isolated antigen as used in BIACORE and ELISA; also called 5T4 oncofetal antigen
T2 sequence (looked up): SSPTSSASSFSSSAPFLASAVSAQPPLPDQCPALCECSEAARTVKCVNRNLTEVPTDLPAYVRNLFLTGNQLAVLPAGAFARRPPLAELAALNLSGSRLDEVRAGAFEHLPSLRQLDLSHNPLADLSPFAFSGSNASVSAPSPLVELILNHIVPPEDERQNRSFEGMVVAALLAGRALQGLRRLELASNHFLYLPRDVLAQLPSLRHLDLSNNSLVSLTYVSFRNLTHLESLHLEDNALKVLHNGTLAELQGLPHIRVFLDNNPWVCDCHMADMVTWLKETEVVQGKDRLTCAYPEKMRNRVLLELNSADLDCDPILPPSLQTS

human 5T4 antigen [4] = target: T2, human 5T4 antigen; assay: BIACORE (plasmon resonance)
human 5T4 antigen [5] = target: T2, human 5T4 antigen; assay: BIACORE, human 5T4 antigen immobilized on a CM5 chip, antibody 12.5 nM to 200 nM
Procedure: BIACORE® technology utilizes changes in the refractive index at the surface layer upon binding of the antibody to the 5T4 antigen immobilized on the layer. Binding is detected by surface plasmon resonance (SPR) of laser light refracting from the surface. Analysis of the signal kinetics on rate and off rate allows the discrimination between non-specific and specific interaction. The concentration of antibody used was in the range of 12.5 nM to 200 nM.

Molecule: CMA: anti-CD33 antibody (p67.6) conjugated to calicheamicin, AcBut linker; control conjugate
- pleural effusions (PC14PE6 lung tumors): did not reduce the pleural effusions
- survival of tumor-bearing animals (PC14PE6 lung tumors): slightly increased the average survival

B1: H8-AcBut-CalichDMH (antibody, V domains shown)
VH: EVQLQQSGPDLVKPGASVKISCKASGYSFTGYYMHWVKQSHGKSLEWIGRINPNNGVTLYNQKFKDKAILTVDKSSTTAYMELRSLTSEDSAVYYCARSTMITNYVMDYWGQVTSVTVSS
VL: SIVMTQTPTFLLVSAGDRVTITCKASQSVSNDVAWYQQKPGQSPTLLISYTSSRYAGVPDRFIGSGYGTDFTFTISTLQAEDLAVYFCQQDYNSPPTFGGGTKLEIK
- ED50 (ng/ml calicheamicin), MTS vital dye, MDAMB435/5T4 cells [1]: 0.04 ng/mL

B2: Semi-Humanized H8 (mVH/hVL1) (antibody, human IgG4 S228P, kappa, V domains shown)
VH: EVQLQQSGPDLVKPGASVKISCKASGYSFTGYYMHWVKQSHGKSLEWIGRINPNNGVTLYNQKFKDKAILTVDKSSTTAYMELRSLTSEDSAVYYCARSTMITNYVMDYWGQVTSVTVSS
VL: DIVMTQSPDSLAVSLGERATINCKASQSVSNDVAWYQQKPGQSPKLLISYTSSRYAGVPDRFSGSGSGTDFTLTISSLQAEDVAVYFCQQDYNSPPTFGGGTKLEIKR
notes: murine H8 VH + mutated human IgG4; also called semi-humanized H8 antibody; semi-human anti-5T4 antibody
- binding result [2]: binds

B3: H8-Amide-CalichDMH (antibody, V domains shown)
VH: EVQLQQSGPDLVKPGASVKISCKASGYSFTGYYMHWVKQSHGKSLEWIGRINPNNGVTLYNQKFKDKAILTVDKSSTTAYMELRSLTSEDSAVYYCARSTMITNYVMDYWGQVTSVTVSS
VL: SIVMTQTPTFLLVSAGDRVTITCKASQSVSNDVAWYQQKPGQSPTLLISYTSSRYAGVPDRFIGSGYGTDFTFTISTLQAEDLAVYFCQQDYNSPPTFGGGTKLEIK
- ED50 (ng/ml calicheamicin), MTS vital dye, MDAMB435/5T4 cells [1]: 0.18 ng/mL
- fold cytotoxicity, 5T4-expressing against 5T4-negative cells [1]: 200 fold

B4: H8 antibody/PEG-SBA (PEG5K) (antibody, V domains shown)
VH: EVQLQQSGPDLVKPGASVKISCKASGYSFTGYYMHWVKQSHGKSLEWIGRINPNNGVTLYNQKFKDKAILTVDKSSTTAYMELRSLTSEDSAVYYCARSTMITNYVMDYWGQVTSVTVSS
VL: SIVMTQTPTFLLVSAGDRVTITCKASQSVSNDVAWYQQKPGQSPTLLISYTSSRYAGVPDRFIGSGYGTDFTFTISTLQAEDLAVYFCQQDYNSPPTFGGGTKLEIK
notes: also called H8PEG5K; H8PEG
- fraction of binding to 5T4 lost following antibody modification (human 5T4 antigen [3]): 79%

B5: H8 antibody/PEG-bis-maleimide (PEGmal2) (antibody, V domains shown)
VH: EVQLQQSGPDLVKPGASVKISCKASGYSFTGYYMHWVKQSHGKSLEWIGRINPNNGVTLYNQKFKDKAILTVDKSSTTAYMELRSLTSEDSAVYYCARSTMITNYVMDYWGQVTSVTVSS
VL: SIVMTQTPTFLLVSAGDRVTITCKASQSVSNDVAWYQQKPGQSPTLLISYTSSRYAGVPDRFIGSGYGTDFTFTISTLQAEDLAVYFCQQDYNSPPTFGGGTKLEIK
notes: also called H8PEGmal2; H8PEG(mal2)
- fraction of binding to 5T4 lost following antibody modification (human 5T4 antigen [3]): 43%

B6: H8 antibody/PEG-SPA (PEG2K) (antibody, V domains shown)
VH: EVQLQQSGPDLVKPGASVKISCKASGYSFTGYYMHWVKQSHGKSLEWIGRINPNNGVTLYNQKFKDKAILTVDKSSTTAYMELRSLTSEDSAVYYCARSTMITNYVMDYWGQVTSVTVSS
VL: SIVMTQTPTFLLVSAGDRVTITCKASQSVSNDVAWYQQKPGQSPTLLISYTSSRYAGVPDRFIGSGYGTDFTFTISTLQAEDLAVYFCQQDYNSPPTFGGGTKLEIK
notes: also called H8PEG2K; H8PEG
- fraction of binding to 5T4 lost following antibody modification (human 5T4 antigen [3]): 69%

B7: H8PEGmal2-AcBut-CalichDMH (antibody, V domains shown)
VH: EVQLQQSGPDLVKPGASVKISCKASGYSFTGYYMHWVKQSHGKSLEWIGRINPNNGVTLYNQKFKDKAILTVDKSSTTAYMELRSLTSEDSAVYYCARSTMITNYVMDYWGQVTSVTVSS
VL: SIVMTQTPTFLLVSAGDRVTITCKASQSVSNDVAWYQQKPGQSPTLLISYTSSRYAGVPDRFIGSGYGTDFTFTISTLQAEDLAVYFCQQDYNSPPTFGGGTKLEIK
- ED50 (ng/ml calicheamicin), MTS vital dye, MDAMB435/5T4 cells [1]: 0.9 ng/mL

B8: H8-AcPac-CalichDMH (antibody, V domains shown)
VH: EVQLQQSGPDLVKPGASVKISCKASGYSFTGYYMHWVKQSHGKSLEWIGRINPNNGVTLYNQKFKDKAILTVDKSSTTAYMELRSLTSEDSAVYYCARSTMITNYVMDYWGQVTSVTVSS
VL: SIVMTQTPTFLLVSAGDRVTITCKASQSVSNDVAWYQQKPGQSPTLLISYTSSRYAGVPDRFIGSGYGTDFTFTISTLQAEDLAVYFCQQDYNSPPTFGGGTKLEIK
- ED50 (ng/ml calicheamicin), MTS vital dye, MDAMB435/5T4 cells [1]: 0.02 ng/mL

B9: Murine H8/CM (antibody, V domains shown)
VH: EVQLQQSGPDLVKPGASVKISCKASGYSFTGYYMHWVKQSHGKSLEWIGRINPNNGVTLYNQKFKDKAILTVDKSSTTAYMELRSLTSEDSAVYYCARSTMITNYVMDYWGQVTSVTVSS
VL: SIVMTQTPTFLLVSAGDRVTITCKASQSVSNDVAWYQQKPGQSPTLLISYTSSRYAGVPDRFIGSGYGTDFTFTISTLQAEDLAVYFCQQDYNSPPTFGGGTKLEIK
notes: also called murine H8-calicheamicin conjugates
- Kd (human 5T4 antigen [4]): 0.58 nM
- koff (human 5T4 antigen [4]): 5.9e-05 s⁻¹
- kon (human 5T4 antigen [4]): 100000 M⁻¹ s⁻¹

B10: Humanized H8 version 2 (hVH2/hVL2) (antibody, human IgG4 S228P, kappa, V domains shown)
VH: QVQLVQSGAEVKKPGASVKVSCKASGYSFTGYYMHWVRQAPGQGLEWMGRINPNNGVTLYNQKFKDRVTMTRDTSISTAYMELSRLRSDDTAVYYCARSTMITNYVMDYWGQGTLVTVSS
VL: DIVMTQSPDSLAVSLGERATINCKASQSVSNDVAWYQQKPGQPPKLLIYYTSSRYAGVPDRFSGSGSGTDFTLTISSLQAEDVAVYYCQQDYNSPPTFGGGTKLEIKR
- Kd (human 5T4 antigen [5]): 0.12 nM

B11: Humanized H8 version 2/AcBut/CalichDMH (antibody, human IgG4 S228P, kappa, V domains shown)
VH: QVQLVQSGAEVKKPGASVKVSCKASGYSFTGYYMHWVRQAPGQGLEWMGRINPNNGVTLYNQKFKDRVTMTRDTSISTAYMELSRLRSDDTAVYYCARSTMITNYVMDYWGQGTLVTVSS
VL: DIVMTQSPDSLAVSLGERATINCKASQSVSNDVAWYQQKPGQPPKLLIYYTSSRYAGVPDRFSGSGSGTDFTLTISSLQAEDVAVYYCQQDYNSPPTFGGGTKLEIKR
modifications: CalichDMH conjugated through the AcBut linker; residues not stated
notes: Conjugate sample contained 61 ug CalichDMH per mg protein, 1% free antibody, 1.4% aggregate; also called humanized H8 calicheamicin conjugate
- Kd (human 5T4 antigen [4]): 0.26 nM
- koff (human 5T4 antigen [4]): 3.4e-05 s⁻¹
- kon (human 5T4 antigen [4]): 130000 M⁻¹ s⁻¹

B12: Humanized H8 version 2/CM (antibody, human IgG4 S228P, kappa, V domains shown)
VH: QVQLVQSGAEVKKPGASVKVSCKASGYSFTGYYMHWVRQAPGQGLEWMGRINPNNGVTLYNQKFKDRVTMTRDTSISTAYMELSRLRSDDTAVYYCARSTMITNYVMDYWGQGTLVTVSS
VL: DIVMTQSPDSLAVSLGERATINCKASQSVSNDVAWYQQKPGQPPKLLIYYTSSRYAGVPDRFSGSGSGTDFTLTISSLQAEDVAVYYCQQDYNSPPTFGGGTKLEIKR
modifications: calicheamicin (CM) conjugated; linker and residues not stated
notes: also called humanized H8 version 2-calicheamicin conjugates
- Kd (human 5T4 antigen [4]): 0.17 nM
- koff (human 5T4 antigen [4]): 2e-05 s⁻¹
- kon (human 5T4 antigen [4]): 120000 M⁻¹ s⁻¹

B13: Humanized H8 version 1 (hVH1/hVL1) (antibody, human IgG4 S228P, kappa, V domains shown)
VH: QVQLVQSGAEVKKPGASVKVSCKASGYSFTGYYMHWVKQSPGQGLEWIGRINPNNGVTLYNQKFKDRVTMTRDTSISTAYMELSRLRSDDTAVYYCARSTMITNYVMDYWGQGTLVTVSS
VL: DIVMTQSPDSLAVSLGERATINCKASQSVSNDVAWYQQKPGQSPKLLISYTSSRYAGVPDRFSGSGSGTDFTLTISSLQAEDVAVYFCQQDYNSPPTFGGGTKLEIKR
- Kd (human 5T4 antigen [5]): 0.84 nM

B14: Humanized H8 version 3 (hVH3/hVL2) (antibody, human IgG4 S228P, kappa, V domains shown)
VH: QVQLVQSGAEVKKPGASVKVSCKASGYSFTGYYMHWVRQAPGQGLEWMGRINPNNGVTLYNQKFKDRVTITRDTSTSTAYMELSSLRSEDTAVYYCARSTMITNYVMDYWGQGTLVTVSS
VL: DIVMTQSPDSLAVSLGERATINCKASQSVSNDVAWYQQKPGQPPKLLIYYTSSRYAGVPDRFSGSGSGTDFTLTISSLQAEDVAVYYCQQDYNSPPTFGGGTKLEIKR
- Kd (human 5T4 antigen [5]): 0.12 nM
